Measured values reported in article PMC7527988, “Cell-free biogenesis of bacterial division proto-rings that can constrict liposomes” (Communications Biology, 2020).

Target: T1, FtsZ labelled with Alexa Fluor 647 (E. coli, UniProt P0A9A6 1-383, Alexa Fluor 647 label, 0.9 ± 0.2 mol of fluorophore per mol of protein)
T1 construct: FtsZ, Escherichia coli cell division protein; called wild-type in the discussion; The label was added to the polymerised protein; also called FtsZ-A647
T1 sequence (looked up): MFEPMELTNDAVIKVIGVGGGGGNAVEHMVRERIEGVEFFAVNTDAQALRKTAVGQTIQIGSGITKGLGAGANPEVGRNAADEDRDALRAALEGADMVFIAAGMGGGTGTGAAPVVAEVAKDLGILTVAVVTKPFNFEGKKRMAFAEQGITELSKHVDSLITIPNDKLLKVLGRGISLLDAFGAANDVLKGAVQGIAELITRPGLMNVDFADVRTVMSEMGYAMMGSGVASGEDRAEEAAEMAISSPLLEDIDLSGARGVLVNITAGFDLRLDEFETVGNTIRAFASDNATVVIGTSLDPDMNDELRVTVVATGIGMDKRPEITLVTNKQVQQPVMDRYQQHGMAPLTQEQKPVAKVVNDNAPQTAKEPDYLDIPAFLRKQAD
Assay: recruitment to a supported lipid bilayer, fluorescence microscopy; 1 µM purified sZipA-A488 first incubated on the SLB with DGS-NTA lipids, washed; 3 µM purified FtsZ-A647 with 2 mM GTP added in minimal reaction buffer or PUREfrex2.0, with 50 g/L Ficoll70 or cell-free synthesized ZapA; spinning disk microscopy at room temperature
Details: both partners purified

B1: soluble ZipA labelled with Alexa Fluor 488 (domain or fragment)
chain: not shown
modifications: Alexa Fluor 488 label, 0.9 ± 0.2 mol of fluorophore per mol of protein
notes: Held on the supported lipid bilayer through the His6-tag and DGS-NTA lipids; also called sZipA-A488; sZipA; not shown: His6, N-terminal, kept
Does B1 bind?
Result: binds
